In patent WO1997049805A2 (dated 1997):

Biological target: hen egg-white lysozyme (hen, UniProt P00698 19-147)
Assay: method not stated

B1: cAb-Lys3 (VHH)
VHH: DVQLQASGGGSVQAGGSLRLSCAASGYTIGPYCMGWFRQAPGKEREGVAAINMGGGITYYADSVKGRFTISQDNAKNTVYLLMNSLEPEDTAIYYCAADSTIYASYYECGHGLSTGGYGYDSWGQGTQVTVSS
Ka: 2e+07 M⁻¹
